In publication doi:10.1101/2023.08.18.553786:

How the values were obtained:
[1] = molecular target: CDTb, the cell-binding component of the C. difficile binary toxin (CDT), active wild type (Clostridioides difficile); assay: cryo-EM structure
[2] = molecular target: CDTb^D623A/D734A, active Ca^2+-binding mutant of CDTb (Clostridioides difficile); assay: cryo-EM structure

CDTb, the cell-binding component of the C. difficile binary toxin (CDT), active wild type (natural protein)
stoichiometry N [1]: 7

CDTb^D623A/D734A, active Ca^2+-binding mutant of CDTb (natural protein)
stoichiometry N [2]: 7
